Experimental data reported in paper PMC10532153 (2023).
Blank lines part the entries; values can stand above or below the binder they belong to.

What was measured:
Sos-S1 peptide = target: T1, Sos-S1 peptide (Drosophila melanogaster, UniProt P26675); experiment: NMR titration
T1 chain: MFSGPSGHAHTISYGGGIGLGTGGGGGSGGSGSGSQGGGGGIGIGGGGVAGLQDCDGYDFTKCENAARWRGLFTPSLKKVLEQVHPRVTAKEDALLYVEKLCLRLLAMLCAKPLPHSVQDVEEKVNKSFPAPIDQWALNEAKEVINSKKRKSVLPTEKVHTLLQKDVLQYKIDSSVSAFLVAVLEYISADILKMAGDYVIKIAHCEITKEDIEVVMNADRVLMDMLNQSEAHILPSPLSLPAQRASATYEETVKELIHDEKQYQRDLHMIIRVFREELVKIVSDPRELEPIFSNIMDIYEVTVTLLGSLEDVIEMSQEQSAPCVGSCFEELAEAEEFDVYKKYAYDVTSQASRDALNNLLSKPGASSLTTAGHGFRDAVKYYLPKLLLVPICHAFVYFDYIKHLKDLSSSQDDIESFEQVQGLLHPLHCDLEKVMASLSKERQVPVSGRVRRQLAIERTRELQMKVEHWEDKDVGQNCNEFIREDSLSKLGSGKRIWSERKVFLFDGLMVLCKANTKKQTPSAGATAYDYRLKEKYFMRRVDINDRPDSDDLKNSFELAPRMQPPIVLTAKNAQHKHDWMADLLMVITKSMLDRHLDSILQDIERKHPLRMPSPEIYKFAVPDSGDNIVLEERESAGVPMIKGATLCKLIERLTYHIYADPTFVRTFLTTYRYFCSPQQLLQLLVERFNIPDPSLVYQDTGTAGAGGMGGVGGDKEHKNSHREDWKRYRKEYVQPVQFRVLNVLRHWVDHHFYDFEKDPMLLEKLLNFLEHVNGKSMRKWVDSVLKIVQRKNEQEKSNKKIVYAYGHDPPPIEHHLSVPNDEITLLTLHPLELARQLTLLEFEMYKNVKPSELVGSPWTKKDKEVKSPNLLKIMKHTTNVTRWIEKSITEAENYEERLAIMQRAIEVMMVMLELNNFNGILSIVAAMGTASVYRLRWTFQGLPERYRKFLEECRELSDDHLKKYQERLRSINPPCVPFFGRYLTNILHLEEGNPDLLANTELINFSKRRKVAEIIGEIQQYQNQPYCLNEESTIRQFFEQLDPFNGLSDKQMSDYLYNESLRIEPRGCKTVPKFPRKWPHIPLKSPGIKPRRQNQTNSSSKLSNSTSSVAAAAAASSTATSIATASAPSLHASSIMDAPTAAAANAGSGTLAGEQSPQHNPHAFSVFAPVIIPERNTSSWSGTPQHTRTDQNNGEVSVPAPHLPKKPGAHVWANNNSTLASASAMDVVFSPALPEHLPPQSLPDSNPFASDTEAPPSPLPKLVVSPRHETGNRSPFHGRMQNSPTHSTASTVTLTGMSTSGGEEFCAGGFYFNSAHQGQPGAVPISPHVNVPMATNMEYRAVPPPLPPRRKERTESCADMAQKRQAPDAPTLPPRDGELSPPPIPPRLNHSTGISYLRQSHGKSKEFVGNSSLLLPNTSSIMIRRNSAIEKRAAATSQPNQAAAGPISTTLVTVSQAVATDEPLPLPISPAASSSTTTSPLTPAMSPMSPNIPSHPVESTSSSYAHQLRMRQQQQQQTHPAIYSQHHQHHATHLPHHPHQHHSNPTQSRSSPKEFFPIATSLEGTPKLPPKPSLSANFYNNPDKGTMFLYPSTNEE

Sos-S2 peptide = target: T2, Sos-S2 peptide (Drosophila melanogaster, UniProt P26675); experiment: NMR titration
T2 chain: T1 chain

Kd (Sos-S1 peptide): ~160 µM
B1: Drk CSH3 (protein)
chain: PEEMLVQALYDFVPQESGELDFRRGDVITVTDRSDENWWNGEIGNRKGIFPATYVTPYHS

Kd (Sos-S2 peptide): ~41 µM
Kd (Sos-S1 peptide): ~13 µM
B2: Drk NSH3 (protein)
chain: MEAIAKHDFSATADDELSFRKTQILKILNMEDDSNWYRAELDGKEGLIPSNYIEMKNH
